Patent US20040198650A1, “Means for inhibiting proteolytical processing of parkin” (priority 2001, published 2004)
Entries after “also recorded” stand apart in the source; their conditions may differ.

Columns and labels:
[1] = test system: apoptosis-associated (caspase) cleavage of human Parkin; test: Site directed mutagenesis of Parkin Asp residues: apoptosis-associated cleavage in stably transfected CHO and SH-SY5Y cell lines (T160 immunoblot); type: cell-based; conditions: 200 nanoM okadaic acid for 16 h
Description: Site directed mutagenesis of […] 126 in parkin to a glutamate residue reduce the apoptosis associated cleavage of parkin. Caspases are proteinases that always cleave after an Asp residue and FIG. 3 indicated the cleavage takes place within the N-terminal 150 amino acid residues. We mutagenised the parkin expression vector to express human parkin where the Asp in the positions 86 plus 87,106, 115, 126 and 130 were substituted with and Glu. CHO and SHSY5Y cell lines were stably transfected with the expression vectors and used for testing the effect of the mutations on apoptosis-associated parkin cleavage. These cells and the cell lines expressing the normal Parkin were treated with 200 nanoM okadaic acid for 16 h and extracted for T160 immunoblotting. The CHO cell lines are represented in lanes 1-6 and the SH-SY5Y cell lines in lanes 7-12. Wild type Parkin is represented in lanes 1, 2, 7, 8; D126E in lanes 3, 4, 9, 10; D130E in lanes 5, 6, 11, 12. Lanes 1, 3, 5, 7, 9, 11 represent untreated cells and lanes 2, 4, 6, 8, 10, 12 represent okadaic treated cells. The positions of the 51 kDa and 38 kDa Parkin proteins are indicated by the upper and lower left arrows.
Caspases are proteinases that always cleave after an Asp residue. Cell lines were generated where Asp residues were changed to Glu residues to test if this amino acid position might represent the caspase cleavage sites. The Parkin expression vector used for generating the Parkin expressing K3 CHO and Park8 SH-SY5Y cell lines was changed by PCR mediated site directed mutagenesis so the nucleotide No.479 was changed from a cytosine to an adenine (ParkinD126E). The cDNA encoding Parkin was kindly provided by Dr. Mizuno, Juntendo University School of Medicine, Japan. The Parkin cDNA was PCR amplified using the primers: […]
The amplified Parkin cDNA was cloned into the Nhe I and EcoR I site of the pcDNA3.1/Zeo(−) vector and the Parkin cDNA sequence was checked by sequencing. To prepare the D126E mutant, the inventors performed site-directed mutagenesis using the Quickchange Mutagenesis Kit (Stratagene) according to the manufactures instructions. Complementary strands of the oligonucleotide: 5′-[…]-3′ were used for preparing the D126E mutated construct. Parkin vectors containing Parkin mutated for D130E and DD86, 87EE were constructed by analogous techniques. This vector was then transfected into SH-SYSY or CHO cells using FUGENE6 (Boehringer Mannheim) and stably transfected cell lines were selected using 25 microgram Zeocinl ml medium (SH-SY5Y cells) or 300 microgram Zeocin/ml medium (CHO cells). The sequences of the vectors were verified by DNA sequencing. The expression vectors were used to generate the stably transfected DD86, 87EE, D126E and D130E CHO and SH-SY5Y cell lines expressing Parkin protein with the indicated substitutions of amino acids. These cells and the cell lines expressing the normal Parkin were treated with 200 nanoM okadaic acid for 16 h and extracted for T160 immunoblotting. The CHO cell lines are represented in lanes FIG. 5, 1-6 and the SH-SY5Y cell lines in lanes 7-12. Wild type Parkin is represented in lanes 1, 2, 7, 8; D126E in lanes 3, 4, 9, 10; D130E in lanes 5, 6, 11, 12. Lanes 1, 3, 5, 7, 9, 11 represent untreated cells and lanes 2, 4, 6, 8, 10, 12 represent okadaic treated cells. The positions of the 51 kDa and 38 kDa Parkin proteins are indicated by the upper and lower left arrows.

[2] = test system: CHO and SH-SY5Y cell lines; test: Cytoprotection against mercaptoethanol-induced unfolded protein stress (DAPI count of dead cells); type: cell-based; conditions: 3 mM mercaptoethanol for 24h
Protocol: Mercaptoethanol is a known inducer of unfolded protein stress by inhibiting the normal formation of disulfide bonds in the endoplasmic reticulum.
CHO and SH-SY5Y cell lines were cultured expressing wild type Parkin, D126E Parkin and an empty vector with 3 mM mercaptoethanol for 24h. They were stained with DNA binding fluorescent dye DAPI and fixed in ice cold methanol prior to drying.

B1: D126E: human Parkin with Asp 126 substituted by Glu (SEQ ID NO: 4) (protein, listed as Homo sapiens)
chain: MIVFVRFNSSHGFPVEVDSDTSIFQLKEVVAKRQGVPADQLRVIFAGKELRNDWTVQNCDLDQQSIVHIVQRPWRKGQEMNATGGDDPRNAAGGCEREPQSLTRVDLSSSVLPGDSVGLAVILHTESRKDSPPAGSPAGRSIYNSFYVYCKGPCQRVQPGKLRVQCSTCRQATLTLTQGPSCWDDVLIPNRMSGECQSPHCPGTSAEFFFKCGAHPTSDKETSVALHLIATNSRNITCITCTDVRSPVLVFQCNSRHVICLDCFHLYCVTRLNDRQFVHDPQLGYSLPCVAGCPNSLIKELHHFRILGEEQYNRYQQYGAEECVLQMGGVLCPRPGCGAGLLPEPDQRKVTCEGGNGLGCGFAFCRECKEAYHEGECSAVFEASGTTTQAYRVDERAAEQARWEAASKETIKKTTKPCPRCHVPVEKNGGCMHMKCPQPQCRLEWCWNCGCEWNRVCMGDHWFDV
modifications: mat_peptide (1)..() Parkin with a D126E mutation
[1]
  Apoptosis-associated cleavage of mutated Parkin compared to wild type: abrogated the cleavage; also recorded: drastically reduced parkin cleavage
[2]
  Survival of cells expressing the Parkin variant compared to wild type Parkin: enhanced survival
